What was measured:
[1] = target: TFPI (form not stated, Example 5) (UniProt P10646 29-304, limits assumed); test: method not stated
[2] = target: T1, human TFPI alpha (full-length TFPIα) (human, UniProt P10646 29-304); test: cell-based or functional assay
[3] = target: T2, endogenous TFPI of human plasma (human, UniProt P10646 29-304, limits assumed); test: cell-based or functional assay
[4] = target: T1, human TFPI alpha (full-length TFPIα); test: cell-based or functional assay; remark: listed apart in the source
[5] = target: T2, endogenous TFPI of human plasma; test: cell-based or functional assay; remark: listed apart in the source
[6] = target: T3, TFPI (1-79) fragment, N-terminal and KPI-1 domain of TFPI with an N-terminally attached GSSGSSG tag (human, UniProt P10646 29-107); test: SPR (Biacore T200), bispecific captured by anti-Fab kappa antibody, antigen as analyte, 1:1 Langmuir fit
T3 construct: also called tagged TFPI KPI-1/N-terminal; TFPI KPI-1
Method: (§1) Binding studies were performed on a Biacore T200 (GEHealthcare) that measures molecular interactions in real time through surface plasmon resonance. Experiments were run at 25° C. and the samples were stored at 15° C. in the sample compartment. The signal (RU, response units) reported by the Biacore is directly correlated to the mass on the individual sensor chip surfaces in four serial flow cells. Goat anti Fab Kappa Light Chain antibody (Nordic Biosite) was immobilized onto all four flow cells of a CM4 sensor chip according to the manufacturer's instructions. Capture of purified bispecific molecules was conducted by diluting the proteins into running buffer (10 mM Hepes 0.3 M NaCl, 5 mM CaCl₂, 0.05% surfactant P20, 10 mg/ml BSA, pH 7.4) and injected over flowcell 2, 3 or 4, creating a reference surface in flow cell 1 with only anti-Fab antibody immobilized. […] Binding of TFPI FL (SEQ ID NO: 1), TFPI (1-79), and TFPI KPI-2 proteins was conducted by injecting analyte (antigen) over all flow cells to allow for comparative analyses of binding to different captured bispecific molecules relative to binding to the reference surface. The TFPI (1-79) fragment spans the N-terminal and KPI-1 domain of TFPI with an N-terminally attached GSSGSSG tag (SEQ ID NO: 16). The TFPI KPI-2 fragment spans the KPI-2 domain of TFPI with a C-terminal HIS₆ tag (SEQ ID NO: 3). Antigens were diluted serially into running buffer, injected at 30 μl/min for 240 s and allowed to dissociate for 600 s or 14000 s. Prolonging the monitoring of dissociation phase for antigens that dissociates slowly with kd approaching 1E-5 s⁻¹ is crucial to get a robust value for the dissociation rate. The CM4 surface was regenerated after each injection cycle of analyte via injection of 10 mM Glycine, pH 2.1. This regeneration step removed the anti-TFPI bispecific molecule and any bound antigen from the immobilized capture antibody surface, and allowed for the subsequent binding of the next interaction sample pair.

[7] = target: TFPI KPI-2 fragment spanning the KPI-2 domain of TFPI with a C-terminal HIS6 tag (human, UniProt P10646 119-178); test: as above
Method: as §1

fold lower TFPI binding affinity than mAb 2021 [1] [fold] | EC50; thrombin generation, FVIII-neutralised plasma + 10 nM full-length TFPI alpha; single experiment [2] [nM] | EC50 of the thrombin generation response in FVIII-neutralised plasma + 10 nM full-length TFPI alpha [2] [nM] | EC50 (half-maximal response); thrombin generation, FVIII-neutralised plasma, no TFPI added; four-parameter fit, average of 2 experiments [3] [nM] | EC50 of the thrombin generation response in FVIII-neutralised plasma without added TFPI [3] [nM] | Peak (nM); thrombin generation, FVIII-neutralized plasma + 10 nM TFPI alpha; 100.0 nM mAb [4] [nM] | ttPeak (min); thrombin generation, FVIII-neutralized plasma + 10 nM TFPI alpha; 100.0 nM mAb [4] [min] | Peak (nM); thrombin generation, FVIII-neutralized plasma, no TFPI added; 10.0 nM mAb [5] [nM] | ttPeak (min); thrombin generation, FVIII-neutralized plasma, no TFPI added; 10.0 nM mAb [5] [min] | Kd [6] [nM] | koff [6] [s⁻¹] | kon [6] [M⁻¹ s⁻¹] | Kd [7] [nM] | koff [7] [s⁻¹] | kon [7] [M⁻¹ s⁻¹] | Binder
10 | – | – | – | – | – | – | – | – | – | – | – | – | – | – | mAb 2007 (antibody, V domains shown, Grafted HzTFPI4F36 with a single A60P (Kabat) back mutation in VH) VH: EVQLVESGGGLVKPGGSLRLSCAASGFTFSNYAMSWVRQAPGKGLEWVSTISRSGSYSYYPDSVKGRFTISRDNAKNSLYLQMNSLRAEDTAVYYCARLGGYDEGDAMDSWGQGTTVTVSS VL: DIVMTQTPLSLSVTPGQPASISCKSSQSLLESDGKTYLNWYLQKPGQSPQLLIYLVSILDSGVPDRFSGSGSGTDFTLKISRVEAEDVGVYYCLQATHFPQTFGGGTKVEIKR
~1000 | – | – | – | – | – | – | – | – | – | – | – | – | – | – | mAb 2000 (antibody, IgG4, V domains shown, Human kappa/IgG4 (S241P); also called initial grafted HzTFPI4F36 variant) VH: EVQLVESGGGLVKPGGSLRLSCAASGFTFSNYAMSWVRQAPGKGLEWVSTISRSGSYSYYADSVKGRFTISRDNAKNSLYLQMNSLRAEDTAVYYCARLGGYDEGDAMDSWGQGTTVTVSS VL: DIVMTQTPLSLSVTPGQPASISCKSSQSLLESDGKTYLNWYLQKPGQSPQLLIYLVSILDSGVPDRFSGSGSGTDFTLKISRVEAEDVGVYYCLQATHFPQTFGGGTKVEIKR
– | 9.5 | 9.5 | 1.1 | 1.1 | 177 | 7 | 182 | 6.9 | 0.3 | 0.0001 | 400000 | 0.02 | 8e-05 | 5e+06 | mAb 0421 (bispecific antibody, human IgG1, kappa, Full length human IgG1 format, made by controlled Fab-arm exchange; also called asymmetric bispecific antibody derived from mAb 0310 and mAb 0336) heavy 1: not shown light 1: DIVMTQTPLSLSVTPGQPASISCKSSQSLLESDGKTYLNWYLQKPGQSPQLLIYLVSILDSGVPDRFSGSGSGTDFTLKISRVEAEDVGVYYCLQATHFPQTFGGGTKVEIKRTVAAPSVFIFPPSDEQLKSGTASVVCLLNNFYPREAKVQWKVDNALQSGNSQESVTEQDSKDSTYSLSSTLTLSKADYEKHKVYACEVTHQGLSSPVTKSFNRGEC heavy 2: not shown light 2: GIVMTQSQKFMSTTVGDRVSITCKASQSVGPAVAWYQQKPGQSPKLLIYSASNRYTGVPDRFTGSGSGADFTLTISNLHSEDLADYFCQQYTSYPTFGGGTKLEIKRTVAAPSVFIFPPSDEQLKSGTASVVCLLNNFYPREAKVQWKVDNALQSGNSQESVTEQDSKDSTYSLSSTLTLSKADYEKHKVYACEVTHQGLSSPVTKSFNRGEC

Reference: patent US20170260289A1 (Novo Nordisk, published 2017)
